We go through 5 molecules from PMC5682932 (The Biochemical journal, 2017).

The target of assay [1] is T1, peptidyl-prolyl isomerase H (PPIH), full length, wild type (human, UniProt O43447 1-177). The assay can be described thus: SPR.
The target of the next assay is T2, PPIH W133A mutant (human, UniProt O43447 1-177, W133A).
T2 sequence: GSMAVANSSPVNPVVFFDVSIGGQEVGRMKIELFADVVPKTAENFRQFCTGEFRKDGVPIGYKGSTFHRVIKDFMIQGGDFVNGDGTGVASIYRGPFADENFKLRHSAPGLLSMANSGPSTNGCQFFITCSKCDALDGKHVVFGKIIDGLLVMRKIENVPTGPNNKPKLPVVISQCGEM
In words: SPR.

The target in assay [2] is T1, peptidyl-prolyl isomerase H (PPIH), …. In words: AUC.

Substitutions are numbered along the chain they refer to. Numbers in names are those of the source.

B1: pre-mRNA processing factor 4 (PRPF4), residues 1-98 (domain or fragment, human, UniProt O43172 1-98, looked up)
chain: MASSRASSTQATKTKAPDDLVAPVVKKPHIYYGSLEEKERERLAKGESGILGKDGLKAGIEAGNINITSGEVFEIEEHISERQAEVLAEFERRKRARQ
Turning to B1, in assay [1], the Kd turned out to be 10.8 ± 1.37 µM. For the same molecule, the binding result in the assay with PPIH W133A mutant is listed as “binds”.

B2: pre-mRNA processing factor 4 (PRPF4), residues 106-169 (domain or fragment, human, UniProt O43172 106-169, looked up)
chain: SEVKACLRALGEPITLFGEGPAERRERLRNILSVVGTDALKKTKKDDEKSKKSKEEYQQTWYHE
Take B2: the “stoichiometry N” value in assay [2] stood at 2. Further, the binding result with PPIH W133A mutant is reported as “binds”.

B3: PRPF4 residues 106-169 with F122A (domain or fragment, human, UniProt O43172 106-169, looked up)
chain: B2 chain with F17A
In the assay with PPIH W133A mutant, B3 returned a Kd of 1 µM.

B4: pre-mRNA processing factor 4 (PRPF4), residues 1-169 (domain or fragment, human, UniProt O43172 1-169, looked up)
chain: MASSRASSTQATKTKAPDDLVAPVVKKPHIYYGSLEEKERERLAKGESGILGKDGLKAGIEAGNINITSGEVFEIEEHISERQAEVLAEFERRKRARQINVSTDDSEVKACLRALGEPITLFGEGPAERRERLRNILSVVGTDALKKTKKDDEKSKKSKEEYQQTWYHE
Molecule B4 registered a Kd in assay [1] of 0.39 ± 0.04 µM. In the assay with PPIH W133A mutant, the binding result is listed as “binds”.

B5: PRPF4 residues 1-169 with F122A (domain or fragment, human, UniProt O43172 1-169, looked up)
chain: B4 chain with F122A
In assay [1], B5 had an equilibrium dissociation constant (Kd) of 15.6 µM. In other words, the double-digit micromolar range.
